The target in data set [1] is ketohexokinase (KHK) from Haloarcula marismortui (Haloarcula marismortui). Nature of the data set: SEC; native molecular mass on a size exclusion column (superdex HiLoad 16/600 200 pg) calibrated with proteins from the HMW and LMW kits; purified His-tagged enzyme.
Substrate in data set [2]: NC(=O)c1ccc[n+]([C@@H]2O[C@H](COP(=O)(O)OP(=O)(O)OC[C@H]3O[C@@H](n4cnc5c(N)ncnc54)[C@H](O)[C@@H]3O)[C@@H](O)[C@H]2O)c1
In words: photometric NADH assay, Michaelis-Menten fit. The class given is biochemical, Haloarcula hispanica. The conditions noted are these: 50 mM Tris-HCl, 1.5 M KCl, 37 °C, varied: cofactor.

Substrate in data set [3]: OC[C@@H](O)[C@@H](O)[C@H](O)[C@@H](O)CO
In words: photometric NADH assay, Michaelis-Menten fit. The note with it: 50 mM Tris-HCl, 1.5 M KCl, 37 °C. The class given is biochemical, Haloarcula hispanica.

Substrate in data set [4]: OC[C@@H](O)[C@@H](O)[C@H](O)[C@H](O)CO
In words: photometric NADH assay, Michaelis-Menten fit. The note with it: 50 mM Tris-HCl, 1.5 M KCl, pH 7.5, 1 mM MnCl2, 1 mM NAD+, 37 °C. The class given is biochemical, Haloarcula hispanica.

Substrate in data set [5]: Nc1ncnc2c1ncn2[C@@H]1O[C@H](COP(=O)(O)OP(=O)(O)OP(=O)(O)O)[C@@H](O)[C@H]1O
In words: coupled pyruvate kinase / lactate dehydrogenase photometric assay, Michaelis-Menten fit. The class given is biochemical, Haloarcula marismortui. The conditions noted are these: 100 mM Tris-HCl, 1.5 M KCl, pH 7.5, 20 mM fructose, 10 mM MgCl2, 37 °C.

Substrate in data set [6]: Nc1ncnc2c1ncn2[C@@H]1O[C@H](COP(=O)(O)OP(=O)(O)OP(=O)(O)O)[C@@H](O)[C@H]1O
The data set is described as above. Format: biochemical, Haloarcula hispanica. The conditions noted are these: 50 mM Tris-HCl, 1.5 M KCl, pH 7.5, 4 mM fructose-1-phosphate, 10 mM MgCl2, 37 °C.

Data set [7] concerns the molecule itself. Nature of the data set: SEC; native molecular mass on a size exclusion column (superdex HiLoad 16/600 200 pg) calibrated with proteins from the HMW and LMW kits; purified His-tagged enzyme. A general note: Size exclusion chromatography separates by hydrodynamic size, large species first.

Regarding “ketohexokinase (KHK) from Haloarcula marismortui (enzyme)”, the stoichiometry N in data set [1] stood at 2.

B1: SorDH (Haloarcula hispanica ATCC 33960) (protein)
chain: MRTAVLVEPNEFELEDRPRPSPGPDDVLVAVRDVGICGSDVHYYEHGRIGDYVVEDPLVLGHESAGEVVEVGENVTHHEPGDRVALEPGVPCRRCAHCKRGDYHLCEEVTFMATPPHDGAFTEYVSWPADFAYTLPEAVSTAEGALCEPLSVGIHACRRGSVGTGDTVLITGAGPIGLMVLEAARAAGATDVILTDVVDEKLTFAEERGADLTVNVTETDLDAAVAEYTDGVGADVVVEASGAEPSIKSTIDVVRRGGTVVLVGLASEAEVPIDVLELIDNEVDVHGSFRYKNTYDAAVDLLADGEVDVEGIIDFESELEDIDDAFRRAMEPTVVKGMISLDS
notes: full-length gene from genomic DNA, N-terminal 6xHis tag, expressed in Haloferax volcanii H1209 (pTA963), Ni-NTA and size exclusion
For B1, the Km in data set [2] (pH 7.5, 1 mM MnCl2, 15 mM sorbitol) was determined as 1200 ± 350 µM; in data set [3] (pH 7.5, 1 mM MnCl2, 2 mM NAD+) it was 14700 ± 7800 µM.

B2: MtlDH (Haloarcula hispanica ATCC 33960) (protein)
chain: MRASTLTDVGEITVEERDRPDPADDEVLVQVGACSVCMTDYHMYHGTFAAETPLVLGHEGAGTVAEVGADVEGFAVGDRVAINPTVPCNACSYCKKGETHLCENNTSIGGAGDTILDGAFAEYVRVPAINVEDIGEMSFERAALAEPLACCVHGVEQTDIKPGDSVGIIGAGPIGLLLLQAFRNAGAAPIVVSELDDERRELAADLGADAVVDPNEEDPEEAICAAAGGPVDVGAEAIGLVPTIKQANAVTASGGSTLIFGVPDQEATMEISPFDVFFDEVDYRGSFSLTTEDFERAITLLRHERIDAETLITERIGLDDLPTAFERMGNAEGLKKVVVPGDSE
notes: as for B1
Take B2: the Km was 2600 ± 270 µM in data set [4]; 420 ± 30 µM in data set [2] (pH 7.5, 1 mM MnCl2, 10 mM mannitol); 27600 ± 2660 µM in data set [3] (pH 7.5, 1 mM MnCl2, 1 mM NAD+, sorbitol up to 100 mM).

B3: KHK (Haloarcula marismortui ATCC 43049) (protein)
chain: MDEETRRAVATADEALPTSDALPDAIDTGRVVFGFDGYLDRVREVVADRIDPESHERLATLESFGDRIDRSVAADSSLSFEWLQQGSRTGGHTSHLARAFGGWSFDPVMVGMYGDPVHDAFETEFGEYELHSLGEPGVTDAVEFDDGKLMLTEIGDTMSLDWAELDTAFGHDRLAEKLDGASLLGTGYWSETPDLPTVFDGLRTLWDGIDDPPETVLVDPGDVRKLDADRLRAGREAIGRLDEVTDVVVTSNRAETGVLADAYAGDAERSFADDAEAVFEALEPTWFVGHGVEQSVVVTAAGTDSVAVPSVSDPELTTSSGDHFNAGLGLARIADLSPAAAVVVGNAVAGYFVRTADQPSLADVRAFVDEYLEKF
notes: full-length gene from genomic DNA, N-terminal 6xHis tag, expressed in Haloferax volcanii H1209 (pTA963)
For B3, the Km in data set [5] was determined as 1290 ± 120 µM.

B4: fructose-1-phosphate kinase (1-PFK) from Haloarcula hispanica (enzyme, UniProt G0HX83 1-302, looked up)
chain: MIVTVTYNPAVDQTIQFDEQMAPDRVMRADEAQFDAGGKGINAAQFLTAMDRPCVATGLLGGFTGSFIRETLQDDGVETAFVDVDGTTRLNTTAIAAAGEYKLNQAGPTVGESVVDALLEQVRAQSPDRVLIGGSLPPGLSPNAIDRIAAGGDWETIVDTGGDVLRELDAQYGLCKPNRAELGDATGADVSTVEGCADAADAFRDRGFDRVLASLGADGAVLVGDTGRLYAEALDINVVDTVGAGDALLSGVLSAWEAGADDETALRTGVAVSSQVVQRAGTAVPDLNDIGSLRDGVTVRQL
notes: fructose-1-phosphate kinase of Haloarcula hispanica, gene fruK (HAH_1077), amplified from genomic DNA; subunits of 31.2 kDa; The gene was cloned into pTA963 with 6 x CAC fused to its 5' end (N-terminal 6 x His tag); also called F1P kinase; fruK; not shown: His6, N-terminal, kept
In the case of B4, in data set [6], the Km worked out at 60 ± 4 µM. Besides, in data set [7], the “stoichiometry N” value is 2.

What is called stoichiometry N is the number of molecules, sites or subunits per partner or assembly. As usually defined, the Km is the substrate concentration at which the rate is half of its maximum.

(Values after paper PMC11519228, “Sugar alcohol degradation in Archaea: uptake and degradation of mannitol and sorbitol in Haloarcula hispanica” (Extremophiles, 2024).)
